Measurements published in patent US20210079083A1 (INSTITUTE FOR BASIC SCIENCE, published 2021).
Substitutions are numbered along the chain they refer to.

B1: mouse anti-Ang2 antibody 4E2 (antibody, V domains shown)
VH: EVQLQQSGPELEKPGASVKISCKASGYSFTGYNMNWVKQSNGKSLEWIGNIDPYYGGTSYNQKFKGKATLTVDKSSSTAYMQLKSLTSEDSAVYYCVRYGNYVDYWGQGTTLTVSS
VL: DIVMTQSHKFMSTSVGDRVSITCKASQDVSTAVAWYQQKPGQSPKLLIYWASTRHTGVPDRFTGSGSGTDYTLTISSVQAEDLALYYCQQHYNTPPTFGSGTKLEIK
notes: Mouse monoclonal antibody from a hybridoma, purified on Protein G
B2: mouse anti-Ang2 antibody 2F10 (antibody, V domains shown)
VH: QVQLVESGGGLVKPGGSLKLSCAASGFTFSDYYMYWIRQTPEKRLEWVATINDGGSYTYYPDSVKGRFTISRDNAKNNLYLQMSSLKSEDTAMYYCARDWGLRPWFVYWGQGTLVTVSA
VL: B1 VL with N93T
notes: as for B1
B3: mouse anti-Ang2 antibody 4B9 (antibody, V domains shown)
VH: B2 VH with Q1E, I37V, N52S, D53V, Y57F
VL: B1 VL with N93S
notes: Mouse monoclonal antibody from a hybridoma (KCLRF-BP-00418), purified on Protein G
B4: mouse anti-Ang2 antibody 2C8 (antibody, V domains shown)
VH: QVQLQQSGPQLVRPGASVKISCKASGYSFTSYWMHWVKQRPGQGLEWIGMIDPSDSETRLNQKFKDKASLTVDKSSSTAYMQLSSPTSGDSAVYYCARRFYYGSDWYFDVWGAGSTVTVSS
VL: DIVMTQSHKFMSTSVGDRVSITCKASQDVGTAVAWYQQKPGQSPKLLIYWASTRHTGVPDRFTGSGSGTDFTLTISNVQSEDLADYFCQQYSSYPLTFGSGTKLEIK
B5: humanized anti-Ang2 antibody 2C8H32 (antibody, V domains shown)
VH: QVQLVQSGAEVKKPGASVKVSCKASGYSFTSYWMHWVRQAPGQGLEWIGMIDPSDSETRLNQKFKDKASMTRDTSTSTVYMELSSLRSEDTAVYYCARRFYYGSDWYFDVWGQGTLVTVSS
VL: DIQLTQSPSFLSASVGDRVSITCKASQDVGTAVAWYQQKPGKAPKLLIYWASTRHTGVPDRFSGSGSGTEFTLTISSLQPEDFATYYCQQYSSYPLTFGQGTKVEIK
notes: Full-length human IgG1
B6: 4B9H11G4 (human IgG4 class antibody of 4B9H11) (antibody, V domains shown)
VH: QVQLVESGGGLVKPGGSLRLSCAASGFTFSDYYMYWIRQAPGKGLEWVSTISVGGSFTYYPDSVKGRFTISRDNAKNSLYLQMNSLRAEDTAVYYCARDWGLRPWFVYWGQGTLVTVSS
VL: B5 VL with L4M, F10S, S20T, G30S, D60S, E70D, Y91H, S92Y, Y94T, L96P
notes: The heavy chain constant region was replaced by an IgG4 class constant region; The sentence prints '4B9 heavy chain gene' where 4B9H11 is meant; also called 4B9H11-IgG4
B7: humanized anti-Ang2 antibody 2C8H42 (antibody, V domains shown)
VH: B5 VH with R38K
VL: B5 VL
notes: Full-length human IgG1
B8: humanized anti-Ang2 antibody 2C8H12 (antibody, V domains shown)
VH: B5 VH with S28T, I48M, K67R, A68V, S69T
VL: B5 VL
notes: Full-length human IgG1
B9: humanized anti-Ang2 antibody 2C8H23 (antibody, V domains shown)
VH: B5 VH with K67R, A68V, S69T
VL: B5 VL with T85D, Y87F
notes: Full-length human IgG1
B10: humanized anti-Ang2 antibody 2C8H13 (antibody, V domains shown)
VH: B5 VH with S28T, I48M, K67R, A68V, S69T
VL: B5 VL with T85D, Y87F
notes: Full-length human IgG1
B11: humanized anti-Ang2 antibody 2C8H53 (antibody, V domains shown)
VH: B5 VH with R38K, M70L, R72V
VL: B5 VL with T85D, Y87F
notes: Full-length human IgG1
B12: 2C8H11G4 (human IgG4 class antibody of 2C8H11) (antibody, V domains shown)
VH: B5 VH with S28T, I48M, K67R, A68V, S69T
VL: B5 VL with S20T, D60S
notes: The heavy chain constant region (CH1-hinge-CH2-CH3) was replaced by an IgG4 class constant region; also called 2C8H11-IgG4
B13: humanized anti-Ang2 antibody 2C8H31 (antibody, V domains shown)
VH: B5 VH
VL: B5 VL with S20T, D60S
notes: Full-length human IgG1
B14: humanized anti-Ang2 antibody 4B9H21 (antibody, V domains shown)
VH: B6 VH with I37V
VL: B5 VL with L4M, F10S, S20T, G30S, D60S, E70D, Y91H, S92Y, Y94T, L96P
notes: Full-length human IgG1
B15: humanized anti-Ang2 antibody 2C8H43 (antibody, V domains shown)
VH: B5 VH with R38K
VL: B5 VL with T85D, Y87F
notes: Full-length human IgG1
B16: humanized anti-Ang2 antibody 4B9H31 (antibody, V domains shown)
VH: B6 VH with I37V, S49A
VL: B5 VL with L4M, F10S, S20T, G30S, D60S, E70D, Y91H, S92Y, Y94T, L96P
notes: Full-length human IgG1
B17: humanized anti-Ang2 antibody 2C8H33 (antibody, V domains shown)
VH: B5 VH
VL: B5 VL with T85D, Y87F
notes: Full-length human IgG1
B18: humanized anti-Ang2 antibody 2C8H51 (antibody, V domains shown)
VH: B5 VH with R38K, M70L, R72V
VL: B5 VL with S20T, D60S
notes: Full-length human IgG1
B19: humanized anti-Ang2 antibody 2C8H21 (antibody, V domains shown)
VH: B5 VH with K67R, A68V, S69T
VL: B5 VL with S20T, D60S
notes: Full-length human IgG1
B20: humanized anti-Ang2 antibody 2C8H22 (antibody, V domains shown)
VH: B5 VH with K67R, A68V, S69T
VL: B5 VL
notes: Full-length human IgG1
B21: humanized anti-Ang2 antibody 2C8H52 (antibody, V domains shown)
VH: B5 VH with R38K, M70L, R72V
VL: B5 VL
notes: Full-length human IgG1
B22: humanized anti-Ang2 antibody 2C8H41 (antibody, V domains shown)
VH: B5 VH with R38K
VL: B5 VL with S20T, D60S
notes: Full-length human IgG1

biological target: T1, Human Angiopoietin-2 full-length (hAng2) (human, UniProt O15123 19-496); experiment: BLI (Octet), hAng2 fixed on AR2G sensor, antibody 3.125-50 nM in solution, 1:1 global fit
T1 construct: The cell assays used full-length hAng2 from R&D Systems; also called human Ang2; A2
T1 sequence: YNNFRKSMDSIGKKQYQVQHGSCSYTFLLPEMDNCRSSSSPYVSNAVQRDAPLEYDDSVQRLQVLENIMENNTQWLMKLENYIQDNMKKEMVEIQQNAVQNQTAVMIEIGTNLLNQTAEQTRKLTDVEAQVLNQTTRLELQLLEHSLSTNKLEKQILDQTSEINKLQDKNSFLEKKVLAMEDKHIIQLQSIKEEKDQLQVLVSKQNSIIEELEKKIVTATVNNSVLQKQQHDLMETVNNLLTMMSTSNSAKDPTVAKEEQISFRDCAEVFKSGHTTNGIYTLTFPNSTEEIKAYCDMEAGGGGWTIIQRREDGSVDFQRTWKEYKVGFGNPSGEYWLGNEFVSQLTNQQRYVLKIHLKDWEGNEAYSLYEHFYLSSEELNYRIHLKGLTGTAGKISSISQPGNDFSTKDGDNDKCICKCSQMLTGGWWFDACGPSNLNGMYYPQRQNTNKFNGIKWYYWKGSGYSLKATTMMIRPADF
Experimental: (§1) The affinity of mouse monoclonal antibody against hAng2 was measured using Octet system (ForteBio). Specifically, buffer and samples were measured in total 200 μl/well using Black 96-well plates (96 well F-type black plates, Greiner). […] After the hydration, hAng2 was diluted in 10 mM sodium acetate, pH 6.0 buffer at a concentration of 10 μg/ml, fixed on AR2G biosensor, and blocked with 1M ethanolamine. The mouse monoclonal anti-Ang2 antibodies were diluted to 50, 25, 12.5, 6.25, 3.125, and 0 nM with 1× kinetic buffer, and subjected to association for 300 seconds and dissociation for 900 seconds.

Going from B1 to B2, the Kd falls from 4.74 nM to 0.138 nM (34-fold). The second binds more tightly here.

Compared with B3, B4 is 12-fold higher in Kd: 0.00368 nM for the first, 0.0455 nM for the second. The first binds more tightly here.

Compared with B1, B2 is 7.8-fold lower in koff: 0.000134 s⁻¹ for the first, 1.71e-05 s⁻¹ for the second.

Going from B3 to B4, the koff rises from 5.04e-07 s⁻¹ to 3.54e-06 s⁻¹ (7-fold).

First: B1
Second: B2
The kon of the first is 4.4-fold lower: 28300 M⁻¹ s⁻¹ for the first, 124000 M⁻¹ s⁻¹ for the second.

Compared with B3, B4 is 1.8-fold lower in kon: 137000 M⁻¹ s⁻¹ for the first, 77800 M⁻¹ s⁻¹ for the second.

biological target: T1, Human Angiopoietin-2 full-length (hAng2); experiment: BLI (Octet), antibody fixed on AR2G sensor, hAng2 3.125-50 nM in solution, 1:1 global fit
Experimental: as §1, with “of humanized anti-Ang2” for “of mouse monoclonal”, “hydration, humanized anti-Ang2 antibody” for “hydration, hAng2”, “The recombinant hAng2 was” for “The mouse monoclonal anti-Ang2 antibodies were”, “300 sec” for “300 seconds”, “900 sec.” for “900 seconds.”
The affinities of humanized 2C8 antibodies to hAng2 were in Table 15.

Going from B5 to B6, the Kd falls from 0.197 nM to 0.08 nM (2.5-fold).

Compared with B7, B8 is 2.7-fold lower in Kd: 0.381 nM for the first, 0.139 nM for the second.

B9 and B10 are within 1.5-fold of each other in Kd: 0.287 nM for the first, 0.246 nM for the second.

Compared with B11, B12 is 37-fold lower in Kd: 0.384 nM for the first, 0.0105 nM for the second. The second binds more tightly here.

Compared with B13, B14 is 2.2-fold lower in Kd: 0.266 nM for the first, 0.121 nM for the second.

Going from B15 to B16, the Kd falls from 0.373 nM to 0.167 nM (2.2-fold). The second binds more tightly here.

Going from B17 to B18, the Kd rises from 0.0445 nM to 0.137 nM (3.1-fold). The first binds more tightly here.

B19 and B20 are within 1.5-fold of each other in Kd: 0.135 nM for the first, 0.115 nM for the second.

B21 and B22 are within 1.5-fold of each other in Kd: 0.243 nM for the first, 0.249 nM for the second.

First: B5
Second: B6
The koff of the first is 2.3-fold lower: 1.49e-05 s⁻¹ for the first, 3.46e-05 s⁻¹ for the second.

First: B7
Second: B8
The koff of the first is 2.3-fold higher: 3.07e-05 s⁻¹ for the first, 1.33e-05 s⁻¹ for the second.

B9 and B10 are within 1.5-fold of each other in koff: 2.28e-05 s⁻¹ for the first, 2.77e-05 s⁻¹ for the second.

Compared with B11, B12 is 7.1-fold lower in koff: 3.11e-05 s⁻¹ for the first, 4.35e-06 s⁻¹ for the second.

Compared with B13, B14 is 2.5-fold lower in koff: 2.21e-05 s⁻¹ for the first, 8.94e-06 s⁻¹ for the second.

First: B15
Second: B16
The koff of the first is 1.7-fold higher: 2.65e-05 s⁻¹ for the first, 1.56e-05 s⁻¹ for the second.

Compared with B17, B18 is 2.4-fold higher in koff: 3.99e-06 s⁻¹ for the first, 9.61e-06 s⁻¹ for the second.

Compared with B19, B20 is 2.2-fold lower in koff: 1.5e-05 s⁻¹ for the first, 6.84e-06 s⁻¹ for the second.

B21 and B22 are within 1.5-fold of each other in koff: 1.99e-05 s⁻¹ for the first, 1.67e-05 s⁻¹ for the second.

Going from B5 to B6, the kon rises from 75700 M⁻¹ s⁻¹ to 432000 M⁻¹ s⁻¹ (5.7-fold).

B7 and B8 are within 1.5-fold of each other in kon: 80600 M⁻¹ s⁻¹ for the first, 95200 M⁻¹ s⁻¹ for the second.

B9 and B10 are within 1.5-fold of each other in kon: 79500 M⁻¹ s⁻¹ for the first, 113000 M⁻¹ s⁻¹ for the second.

Compared with B11, B12 is 5.1-fold higher in kon: 80900 M⁻¹ s⁻¹ for the first, 415000 M⁻¹ s⁻¹ for the second.

B13 and B14 are within 1.5-fold of each other in kon: 83200 M⁻¹ s⁻¹ for the first, 73700 M⁻¹ s⁻¹ for the second.

B15 and B16 are within 1.5-fold of each other in kon: 71100 M⁻¹ s⁻¹ for the first, 93900 M⁻¹ s⁻¹ for the second.

B17 and B18 are within 1.5-fold of each other in kon: 89600 M⁻¹ s⁻¹ for the first, 70200 M⁻¹ s⁻¹ for the second.

First: B19
Second: B20
The kon of the first is 1.9-fold higher: 111000 M⁻¹ s⁻¹ for the first, 59600 M⁻¹ s⁻¹ for the second.

B21 and B22 are within 1.5-fold of each other in kon: 81900 M⁻¹ s⁻¹ for the first, 67000 M⁻¹ s⁻¹ for the second.
